Measurements taken from patent US20120027774A1 (DYAX, published 2012).

Experiments:
[1] = target: human MMP-9 (human, UniProt P14780 107-707, limits assumed); experiment: cell-based or functional assay
[2] = target: T1, Human MMP-9 catalytic domain (BIOMOL, SE-244) (human, UniProt P14780 107-445, limits assumed); experiment: enzyme inhibition, competitive model; intercept of IC50 against substrate concentration (3 to 15 µM), 0.6 nM enzyme
T1 construct: domain: catalytic domain; also called hMMP-9
T1 sequence (P14780 107-445 limits assumed): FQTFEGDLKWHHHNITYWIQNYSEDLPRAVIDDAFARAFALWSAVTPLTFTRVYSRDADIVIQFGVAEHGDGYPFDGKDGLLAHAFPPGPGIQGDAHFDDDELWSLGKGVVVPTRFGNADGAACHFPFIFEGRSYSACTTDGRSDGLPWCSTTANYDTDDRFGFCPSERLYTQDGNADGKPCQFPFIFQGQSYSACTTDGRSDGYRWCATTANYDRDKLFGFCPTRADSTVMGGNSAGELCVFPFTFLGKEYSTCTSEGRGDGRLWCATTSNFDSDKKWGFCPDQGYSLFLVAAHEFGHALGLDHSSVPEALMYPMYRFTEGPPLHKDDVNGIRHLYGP
Method: Experiments were performed to characterize the interaction of the M0166-F10 hIgG1 with human MMP-9. The Ki was measured and the inhibition mechanism was determined.
Materials: [0427] Substrate: Mca-KPLGL-Dap(Dnp)-AR-NH₂ (M-2350) from BACHEM (521575). A 10 mM stock solution was prepared in DMSO. [0428] Human MMP-9 catalytic domain (BIOMOL, SE-244), stock solution at 0.24 mg/ml. [0429] M0166-F10 hIgG1: 2551-095. Dialysed against TCN. Stock solution at 0.226 mg/ml. [0430] Experiments were performed in TCNB: 50 mM Tris/HCl, 10 mM CaCl₂, 150 mM NaCl, 0.05% Brij 35, pH 7.5. [0431] 96-well black plates from Perkin Elmer (6005270). [0432] Spectramax M2e to measure fluorescence emission of the substrate upon hydrolysis (temperature control set at 30° C.; λexc=328 nm and λₑₘ=393 nm).
Procedure: [0434] 90 μl of the enzyme (final concentration=0.6 nM) was preincubated with 90 μl of various concentrations (0-100 nM final) of M0166-F10 for 1.5 h at 30° C. 20 μl the substrate was then added to a final concentration ranging from 3 to 15 μM, and initial rates were recorded. [0435] Each data point was measured in triplicate, and initial rates were averaged. […] Averaged initial rates were plotted against the M0166-F10 concentration for each substrate concentration, and IC₅₀'s were calculated using the following equation: […]

[3] = target: T1, Human MMP-9 catalytic domain (BIOMOL, …); experiment: cell-based or functional assay
[4] = target: T1, Human MMP-9 catalytic domain (BIOMOL, …); experiment: cell-based or functional assay; remark: listed apart in the source
[5] = target: T1, Human MMP-9 catalytic domain (BIOMOL, …); experiment: cell-based or functional assay; remark: listed apart in the source
[6] = target: T1, Human MMP-9 catalytic domain (BIOMOL, …); experiment: cell-based or functional assay; remark: listed apart in the source
[7] = target: human MMP-2 (human, UniProt P08253 110-452, limits assumed); experiment: cell-based or functional assay
human MMP-2, sequence (P08253 110-452 limits assumed): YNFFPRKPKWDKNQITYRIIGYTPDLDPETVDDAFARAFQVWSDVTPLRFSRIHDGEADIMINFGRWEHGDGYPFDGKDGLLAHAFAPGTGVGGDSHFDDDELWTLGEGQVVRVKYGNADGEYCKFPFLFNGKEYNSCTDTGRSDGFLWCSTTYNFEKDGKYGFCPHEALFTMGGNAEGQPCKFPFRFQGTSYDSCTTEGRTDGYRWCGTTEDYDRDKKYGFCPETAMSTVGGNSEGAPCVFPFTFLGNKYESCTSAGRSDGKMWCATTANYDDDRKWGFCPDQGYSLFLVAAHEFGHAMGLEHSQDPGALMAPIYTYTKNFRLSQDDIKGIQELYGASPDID

[8] = target: human MMP-3 (human, UniProt P08254 100-272, limits assumed); experiment: cell-based or functional assay
human MMP-3, sequence (P08254 100-272 limits assumed): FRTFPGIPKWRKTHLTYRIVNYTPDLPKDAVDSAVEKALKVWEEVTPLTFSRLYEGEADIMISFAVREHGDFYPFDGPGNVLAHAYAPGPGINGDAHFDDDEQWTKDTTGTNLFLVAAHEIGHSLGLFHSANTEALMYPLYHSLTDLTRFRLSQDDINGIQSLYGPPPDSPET

[9] = target: human MMP-14 (human, UniProt P50281 112-284, limits assumed); experiment: cell-based or functional assay
[10] = target: T2, human MMP-7 (human, UniProt P09237 95-267); experiment: cell-based or functional assay
T2 sequence (looked up): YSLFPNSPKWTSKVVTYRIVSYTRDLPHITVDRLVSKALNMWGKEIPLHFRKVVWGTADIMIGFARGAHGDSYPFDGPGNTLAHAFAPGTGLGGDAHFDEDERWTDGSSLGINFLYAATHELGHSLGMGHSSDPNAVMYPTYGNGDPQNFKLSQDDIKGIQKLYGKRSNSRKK

[11] = target: T3, human MMP-1 (human, UniProt P03956 100-269, limits assumed); experiment: cell-based or functional assay
T3 sequence (looked up): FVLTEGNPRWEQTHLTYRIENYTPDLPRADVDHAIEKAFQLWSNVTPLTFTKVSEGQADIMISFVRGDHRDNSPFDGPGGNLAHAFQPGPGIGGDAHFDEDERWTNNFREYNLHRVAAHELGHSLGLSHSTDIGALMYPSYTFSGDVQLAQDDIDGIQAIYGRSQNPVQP

[12] = target: human MMP-8 (human, UniProt P22894 100-262, limits assumed); experiment: cell-based or functional assay
human MMP-8, sequence (P22894 100-262 limits assumed): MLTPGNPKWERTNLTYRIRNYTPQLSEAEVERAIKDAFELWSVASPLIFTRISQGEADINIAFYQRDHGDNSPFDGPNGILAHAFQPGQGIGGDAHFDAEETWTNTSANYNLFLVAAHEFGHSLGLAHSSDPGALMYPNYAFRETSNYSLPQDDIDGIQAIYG

[13] = target: mouse MMP-2 (mouse, UniProt P33434 30-662, limits assumed); experiment: cell-based or functional assay
mouse MMP-2, sequence (P33434 30-662 limits assumed): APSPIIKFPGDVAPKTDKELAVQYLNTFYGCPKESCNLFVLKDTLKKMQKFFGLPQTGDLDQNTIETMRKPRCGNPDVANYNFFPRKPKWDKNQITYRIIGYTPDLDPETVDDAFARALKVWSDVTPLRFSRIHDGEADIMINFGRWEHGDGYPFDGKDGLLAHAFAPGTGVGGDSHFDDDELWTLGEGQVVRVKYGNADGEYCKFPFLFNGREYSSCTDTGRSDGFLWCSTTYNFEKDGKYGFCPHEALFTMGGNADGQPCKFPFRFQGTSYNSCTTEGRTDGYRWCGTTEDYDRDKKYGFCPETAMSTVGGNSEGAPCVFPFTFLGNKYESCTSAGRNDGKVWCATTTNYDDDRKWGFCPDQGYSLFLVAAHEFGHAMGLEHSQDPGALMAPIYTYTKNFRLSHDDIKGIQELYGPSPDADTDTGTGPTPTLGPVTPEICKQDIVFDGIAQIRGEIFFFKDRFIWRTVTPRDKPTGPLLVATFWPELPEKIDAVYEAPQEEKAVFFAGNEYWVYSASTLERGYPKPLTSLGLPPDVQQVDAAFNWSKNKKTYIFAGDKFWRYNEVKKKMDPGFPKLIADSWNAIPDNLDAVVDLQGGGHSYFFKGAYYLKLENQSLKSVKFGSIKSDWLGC

[14] = target: human MMP-12 (human, UniProt P39900 106-268, limits assumed); experiment: cell-based or functional assay
human MMP-12, sequence (P39900 106-268 limits assumed): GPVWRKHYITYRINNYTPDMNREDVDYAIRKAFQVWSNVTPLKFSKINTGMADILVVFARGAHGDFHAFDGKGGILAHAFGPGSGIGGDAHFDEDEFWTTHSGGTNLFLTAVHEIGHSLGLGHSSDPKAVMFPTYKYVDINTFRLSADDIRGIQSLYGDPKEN

[15] = target: human MMP-13 (human, UniProt P45452 104-274); experiment: cell-based or functional assay
[16] = target: mouse MMP-9 (mouse, UniProt P41245 20-730, limits assumed); experiment: cell-based or functional assay
mouse MMP-9, sequence (P41245 20-730 limits assumed): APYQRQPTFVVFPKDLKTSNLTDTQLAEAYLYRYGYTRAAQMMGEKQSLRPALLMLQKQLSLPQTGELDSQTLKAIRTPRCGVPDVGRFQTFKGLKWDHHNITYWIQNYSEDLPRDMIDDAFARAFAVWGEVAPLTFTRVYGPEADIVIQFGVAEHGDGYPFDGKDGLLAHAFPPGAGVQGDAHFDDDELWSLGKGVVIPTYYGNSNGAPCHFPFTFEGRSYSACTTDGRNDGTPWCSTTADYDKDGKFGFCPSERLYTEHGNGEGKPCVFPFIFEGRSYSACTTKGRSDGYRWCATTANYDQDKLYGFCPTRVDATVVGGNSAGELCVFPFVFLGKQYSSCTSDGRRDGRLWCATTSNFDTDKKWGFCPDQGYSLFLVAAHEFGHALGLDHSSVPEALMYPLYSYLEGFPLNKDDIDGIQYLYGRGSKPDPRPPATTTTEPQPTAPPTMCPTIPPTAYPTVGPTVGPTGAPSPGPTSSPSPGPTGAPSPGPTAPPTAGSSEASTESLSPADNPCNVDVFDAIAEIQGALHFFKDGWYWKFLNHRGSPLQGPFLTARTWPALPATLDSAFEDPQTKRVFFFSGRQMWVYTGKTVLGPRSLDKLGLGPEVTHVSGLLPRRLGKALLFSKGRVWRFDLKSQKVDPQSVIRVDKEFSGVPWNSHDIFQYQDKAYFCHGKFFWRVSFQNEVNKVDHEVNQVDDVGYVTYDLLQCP

[17] = target: human MMP-10 (human, UniProt P09238 99-271, limits assumed); experiment: cell-based or functional assay
human MMP-10, sequence (P09238 99-271 limits assumed): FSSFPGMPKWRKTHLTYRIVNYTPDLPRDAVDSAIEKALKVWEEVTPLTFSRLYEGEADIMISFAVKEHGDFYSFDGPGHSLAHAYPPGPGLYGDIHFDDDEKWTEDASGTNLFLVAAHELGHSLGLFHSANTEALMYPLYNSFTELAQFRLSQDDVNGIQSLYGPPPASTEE

human MMP-9, sequence (P14780 107-707 limits assumed): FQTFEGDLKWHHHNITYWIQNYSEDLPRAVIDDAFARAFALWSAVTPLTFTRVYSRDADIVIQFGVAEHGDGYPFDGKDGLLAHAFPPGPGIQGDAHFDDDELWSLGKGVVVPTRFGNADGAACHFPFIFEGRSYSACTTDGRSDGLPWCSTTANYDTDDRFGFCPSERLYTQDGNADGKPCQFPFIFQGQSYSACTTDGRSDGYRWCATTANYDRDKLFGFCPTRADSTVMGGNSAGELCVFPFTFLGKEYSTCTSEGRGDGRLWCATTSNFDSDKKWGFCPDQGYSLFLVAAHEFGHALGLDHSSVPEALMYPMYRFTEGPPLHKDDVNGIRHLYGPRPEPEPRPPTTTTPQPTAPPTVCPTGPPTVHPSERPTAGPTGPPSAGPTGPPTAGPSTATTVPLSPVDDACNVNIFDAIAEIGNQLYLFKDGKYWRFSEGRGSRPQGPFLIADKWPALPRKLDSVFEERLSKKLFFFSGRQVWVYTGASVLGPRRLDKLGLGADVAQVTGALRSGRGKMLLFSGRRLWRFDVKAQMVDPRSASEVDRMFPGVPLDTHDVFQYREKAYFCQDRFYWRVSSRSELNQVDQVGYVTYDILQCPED

B1: 539A-M0166-F10 (format not stated: Fab or hIgG-1) (antibody, V domains shown)
VH: EVQLLESGGGLVQPGGSLRLSCAASGFTFSPYLMNWVRQAPGKGLEWVSSIYSSGGGTGYADSVKGRFTISRDNSKNTLYLQMNSLRAEDTAVYYCARIYHSSSGPFYGMDVWGQGTTVTVSS
VL: AQSELTQPPSASAAPGQRVTISCSGSSSNIGSNTVTWYQKLPGTAPKLLIYNNYERPSGVPARFSGSKSGTSASLAISGLQSEDEADYYCATWDDSLIANYVFGSGTKVTVLG
IC50, inhibition of MMP-9 activity [1]: 1.8 nM

B2: 539A-M0166-F10 hIgG1 (antibody, V domains shown)
VH: B1 VH
VL: QSELTQPPSASAAPGQRVTISCSGSSSNIGSNTVTWYQKLPGTAPKLLIYNNYERPSGVPARFSGSKSGTSASLAISGLQSEDEADYYCATWDDSLIANYVFGSGTKVTVLG
notes: Human IgG1; also called DL15
Ki [2]: 0.3 nM
IC50 on human MMP-9 activity (fluorogenic substrate, 10 µM) [3]: 4.3 nM
a (intercept) of the linear fit of IC50 (nM) against M-2350 substrate concentration (µM); unit taken from the IC50 axis [4]: 0.586 nM
b (gradient) of the linear fit of IC50 (nM) against M-2350 substrate concentration (µM); unit not given [4]: 0.39
IC50 (inhibition of enzyme activity, 3 µM substrate M-2350, 0.6 nM enzyme); unit from the concentration axis [panel 3µM] [5]: 2.16 nM
IC50 (inhibition of enzyme activity, 5 µM substrate M-2350, 0.6 nM enzyme); unit from the concentration axis [panel 5µM] [5]: 2.45 nM
IC50 (inhibition of enzyme activity, 7.5 µM substrate M-2350, 0.6 nM enzyme); unit from the concentration axis [panel 7.5µM] [5]: 4.22 nM
IC50 (inhibition of enzyme activity, 10 µM substrate M-2350, 0.6 nM enzyme); unit from the concentration axis [panel 10µM] [5]: 3.99 nM
IC50 (inhibition of enzyme activity, 12.5 µM substrate M-2350, 0.6 nM enzyme) [panel 12.5µM] [5]: 5.35 nM
IC50 (inhibition of enzyme activity, 15 µM substrate M-2350, 0.6 nM enzyme); unit from the concentration axis [panel 15µM] [5]: 7.06 nM
residual enzyme activity in the presence of 1 µM antibody, 10 µM fluorogenic peptide substrate (unit not given) [6]: 4

B3: 539A-M0166-F10 Fab (Fab, V domains shown)
VH: B1 VH
VL: B1 VL
IC50 on human MMP-9 activity (fluorogenic substrate, 10 µM) [3]: ~33 nM
residual enzyme activity in the presence of 1 µM antibody, 10 µM fluorogenic peptide substrate (unit not given) [7]: 126
residual enzyme activity in the presence of 1 µM antibody, 10 µM fluorogenic peptide substrate (unit not given) [6]: 8
residual enzyme activity in the presence of 1 µM antibody, 10 µM fluorogenic peptide substrate (unit not given) [8]: 82
residual enzyme activity in the presence of 1 µM antibody, 10 µM fluorogenic peptide substrate (unit not given) [9]: 115
residual enzyme activity in the presence of 1 µM antibody, 10 µM fluorogenic peptide substrate (unit not given) [10]: 93
residual enzyme activity in the presence of 1 µM antibody, 10 µM fluorogenic peptide substrate (unit not given) [11]: 104
residual enzyme activity in the presence of 1 µM antibody, 10 µM fluorogenic peptide substrate (unit not given) [12]: 100
residual enzyme activity in the presence of 1 µM antibody, 10 µM fluorogenic peptide substrate (unit not given) [13]: 113
residual enzyme activity in the presence of 1 µM antibody, 10 µM fluorogenic peptide substrate (unit not given) [14]: 90
residual enzyme activity in the presence of 1 µM antibody, 10 µM fluorogenic peptide substrate (unit not given) [15]: 106
residual enzyme activity in the presence of 1 µM antibody, 10 µM fluorogenic peptide substrate (unit not given) [16]: 94
residual enzyme activity in the presence of 1 µM antibody, 10 µM fluorogenic peptide substrate (unit not given) [17]: 102
